For one data set, the target named is NikS (Streptomyces tendae, UniProt Q9F2E5). The experiment in a line: steady-state amide ligation kinetics, substrate inhibition model. The format is biochemical. The settings on record: HPHT as co-substrate.
Substrate in data set [1]: N[C@H](C(=O)O)[C@H]1O[C@@H](n2ccc(=O)[nH]c2=O)[C@H](OP(=O)(O)O)[C@@H]1O
The data set is described as above. Particulars: HPHT as co-substrate. The format is biochemical, Streptomyces tendae.

Substrate in data set [2]: N[C@H](C(=O)O)[C@H]1O[C@@H](n2cc(C(=O)O)c(=O)[nH]c2=O)[C@H](O)[C@@H]1O
The experiment in a line: steady-state amide ligation kinetics, Michaelis-Menten fit. Particulars: 200 μM CPOAA, 1 mM ATP, 3 mM MgCl2. The class given is biochemical, Streptomyces asoensis.

Substrate in data set [3]: N[C@H](C(=O)O)[C@H]1O[C@@H](n2ccc(=O)[nH]c2=O)[C@H](O)[C@@H]1O
The description is as above. The format is biochemical, Streptomyces asoensis. Particulars: 200 μM CPOAA, 1 mM ATP, 3 mM MgCl2.

Substrate in data set [4]: N[C@H](C(=O)O)[C@H]1O[C@@H](n2ccc(=O)[nH]c2=O)[C@H](OP(=O)(O)O)[C@@H]1O
Described as above. The class given is biochemical, Streptomyces asoensis. Particulars: 200 μM CPOAA, 1 mM ATP, 3 mM MgCl2.

As a reminder, the Km is the concentration of substrate that gives half-maximal velocity. One may read the kcat as the maximal rate divided by the concentration of active sites.

The molecule `N[C@H](C(=O)O)[C@H]1O[C@@H](n2ccc(=O)[nH]c2=O)[C@H](OP(=O)(O)O)[C@@H]1O` [compound 6, AHAP] displayed a Ki on NikS of 111 ± 38 µM.

B1: NikS (Streptomyces tendae) (protein)
chain: MKAEQGPFLLLNTKKIVSRLHEWFPDAARELVVVTTKADIPSADISAYARRFLHLEVVPNLWELSDDELLALARRFGVRRILSLGEREVLRAARIRAELGLPGQSLASATAYRDKHVMKSTLAAAGIDVAPMRKFRTNDDLAEFAWKVGFPVVVKELDSGASNGTVVLMDEEDLRALPERATAAPRLAEAWVEGDFYHVNGLMKDGEVVLAVPSRNLYSDWFSVAYDAPTMTGMMPDDHPLSERLRSTARQVVAALPAVPDLCAFHLELFHTADDRVVVCEIACRAGAALVSDVHEAVLGVNFHGASLLGQAGRGDQVEIRPTGERLGFVWFPPAKGVLRALPDTCPLPGTVSYRPCGDIGRRYGSSSGLGRPIAEMVFRLTEPDTGAELRRIEEWWDDNVVWEHRTNAVPDRWKTPRRKPADA
Take B1: in data set [1], the Michaelis constant (Km) amounted to 10.9 ± 2.6 µM and the kcat came out at 0.0283 ± 0.005 s⁻¹.

B2: PolG (Streptomyces asoensis) (protein)
chain: MFLLLNNKPILHRVPEWFPQARQELIVVSTRSGLGTSAFPELARGFRHLHLVSSLDRPGLEEDLVALCRRFGVRRVLSTGEREVLPAATLRERLGLPGQDVACATAYRDKYTMKSLLTEAGIPVAPMRRLASPADLDAFADEAGFPLVVKSRLSGGSNGTRVLWDGDALTAFTDDWAAGRTAAPDLAEAWVEGDFYHINGLMRDGRILLAQPSYQPYSDWFSVAYDAPGMSGMMPDEDPMSARLRDTAAKVVATMPAVPGVCAFQVEFFHTPDDRLVVCETACRAGGSRMVETHEDTLGVHLHGASLLGQAGRSDQVTIRPTGRRQGYARFPSAHGVLRHLPRRSPLPQTLLYTATGEEGRHYDPATSLGSSVAEIVVSLTGPDTAAELLAVETWWESAVVWQDRRNPVPDRFKSVHRVRPDTRERALHV
As for B2, the Michaelis constant (Km) in data set [2] is 334 ± 68 µM; in data set [3], 931 ± 122 µM; in data set [4], 9.1 ± 0.4 µM. For the same molecule, the results for the kcat in data set [2], in data set [3] and in data set [4] were 0.0233 ± 0.0067 s⁻¹, 0.0112 ± 0.00067 s⁻¹ and 0.0583 ± 0.0033 s⁻¹, respectively.

Source of the values: paper PMC8415103 (Biochemistry, 2021).
